Two substances from patent EP4552657A1, “RADIOPHARMACEUTICAL COMPLEXES AND COMBINATIONS” (priority 2023, dated 2025) can be followed below.

In assay [1] the target is CEACAM5 coated on M270-carboxy Dynabeads (UniProt P06731). Description: IRF assay on CEACAM5-coated M270-carboxy Dynabeads, 33 µg beads.
The target is the same in assay [2]. Description: IRF assay on CEACAM5-coated M270-carboxy Dynabeads, 100 µg beads.
Assay [3] shares this target. Description: IRF assay on CEACAM5-coated M270-carboxy Dynabeads, 333 µg beads.
Assay [4] deals with human recombinant DLL3 antigen (human) (UniProt Q9NYJ7). Briefly: IRF assay on recombinant human DLL3 coated M-270-carboxy Dynabeads, 10 µg beads.
human recombinant DLL3 antigen (human), sequence (Q9NYJ7 27-492 limits assumed): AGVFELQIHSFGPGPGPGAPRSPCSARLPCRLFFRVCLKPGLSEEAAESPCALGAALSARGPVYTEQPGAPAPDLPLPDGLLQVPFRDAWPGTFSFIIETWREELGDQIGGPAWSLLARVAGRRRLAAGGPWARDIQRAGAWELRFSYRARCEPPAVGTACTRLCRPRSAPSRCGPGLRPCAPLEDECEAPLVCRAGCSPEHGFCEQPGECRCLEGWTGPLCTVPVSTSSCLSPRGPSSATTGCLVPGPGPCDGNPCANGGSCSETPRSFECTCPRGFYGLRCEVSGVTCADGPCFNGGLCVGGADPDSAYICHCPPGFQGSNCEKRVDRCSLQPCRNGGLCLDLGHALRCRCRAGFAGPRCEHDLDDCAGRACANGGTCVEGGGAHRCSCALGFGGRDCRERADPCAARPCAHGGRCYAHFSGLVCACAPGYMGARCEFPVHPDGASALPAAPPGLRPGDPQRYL

CEACAM5 coated on M270-carboxy Dynabeads, sequence (P06731 35-685 limits assumed): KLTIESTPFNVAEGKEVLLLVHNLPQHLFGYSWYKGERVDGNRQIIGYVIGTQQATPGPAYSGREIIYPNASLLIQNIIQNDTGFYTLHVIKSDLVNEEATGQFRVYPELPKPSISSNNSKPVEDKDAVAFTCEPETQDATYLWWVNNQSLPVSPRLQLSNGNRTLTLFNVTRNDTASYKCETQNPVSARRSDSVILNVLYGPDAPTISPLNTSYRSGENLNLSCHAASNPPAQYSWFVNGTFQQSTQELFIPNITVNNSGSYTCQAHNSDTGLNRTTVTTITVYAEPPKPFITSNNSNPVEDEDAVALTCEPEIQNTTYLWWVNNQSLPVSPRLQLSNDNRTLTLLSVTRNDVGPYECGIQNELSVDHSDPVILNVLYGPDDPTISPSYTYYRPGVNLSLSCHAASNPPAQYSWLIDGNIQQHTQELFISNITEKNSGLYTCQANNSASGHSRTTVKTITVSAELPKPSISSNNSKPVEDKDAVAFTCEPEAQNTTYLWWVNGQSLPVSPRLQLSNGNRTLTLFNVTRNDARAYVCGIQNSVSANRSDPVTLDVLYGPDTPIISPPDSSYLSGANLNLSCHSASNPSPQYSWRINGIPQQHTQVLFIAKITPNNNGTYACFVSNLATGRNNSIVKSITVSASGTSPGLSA

For Ac-225-macropa-Labetuzumab (antibody), the results for the IRF (immunoreactive fraction) in assay [1], in assay [2] and in assay [3] were 43%, 88% and 97%, respectively.

Consider “Ac-225-macropa-Rovalpituzumab (antibody)”, for which the maximum binding (IRF) in assay [4] was 86%.
